Data taken from the DeepSol protein solubility set.

assay: soluble on expression in E. coli; label from the status in PepcDB or PDB records

Sequence	soluble on expression in E. coli
MSSPHSLRQQYQSLIASGSIEADPAQARAVQAFTLLNETLDGYKPPKKQGFFGRLFGGGDAGQAPPQGLYIHGEVGRGKTMLMDLFFDASPIALKRRSHFHEFMAETHDRINGFRQAIKRGDIPDADVMELTAASILDEAWLLCFDEFHVTDIADAMILGRLFTKLFELGTVVVATSNVAPDDLYKGGLNRSLFMPFIGQVKRHMRVIRLDARTDYRLEKFAGMKVWLAPDDAEATATIDRAWHRITGTTKGEPRDISIKGRILHVPQADHHVARFSFADLCQKPLGASDYLRLAHEYHTLMIDHVPVMDYADRNAAKRFIALIDTLYDNSVKLMASAAAEPARLYRATEGFEALEFNRTVSRLTEMGSESYLALPHGRRDSTATGETTGLVETMAGDPLEHHHHHH	not soluble
MKTDVRWATFNIRYDNPQDSLNNWQYRKDRVCQFIKDHELDIVGMQEVLHNQFQDLRAGLPEYDGIGVGRDDGKTAGEYAPLFYRKDKYEVLDSNTFWLAENPDSVGMMGWDAVCVRIATWAKFKDKATGKIFMAVNTHFDHVGEEARRQSALLIIRKIKEIVGERPAVVTGDFNVTDASDAYETITTNEFVMKDAYKTAARVTGVDYTFHDFARIPAEDCEKIDFIFVTPQVLVKSCEIPAEVPEALLSDHNPQLADLELEHHHHHH	soluble
MINIDPPSGDCPASGGSSTHNIVSESESRLAFKVKSSNNESYRVRPVYGFVDAKGKAKLDVNRLAGPPKEDKLVIQYARVPADETDPKAPFAAGAQQGEVVVKMVAT	not soluble
MKEIIFDDIGSYPLPEGVSREWVQNAFKTRAEDEKLFTVINDAFQQKIDAGVEVPTYPQYQDMNEQFLKVIRDSNCTDSPFEVKLECARIEELEAIETVAKAYKEKFGETLKVRICVTGPTELYLKEFGGTRYTDIYTLFAKSINRFVRNSMKSAKHFKIATVSIDEPSIGLNPELAFDENDVISALTEASKAASKWGADVEIHLHSPLYYNYACETTTINVIGVESAGTPSYLELIDKKMLEDTDSFLRIGIARTDIFSLAGILNEKYCTNIWKDQQYIPEIVSQLETPEVIEKRLKLAYRRFGSLIKYVGPDCGLGSWPNQRIAFILLSNVAQGIKNFRENLLEHHHHHH	soluble
MGSDKIHHHHHHMTIFSVRHITSYRYKRPVEFGEHRLMFRPRDSFDQTLLSSHLDVDPKPDYIRWIHDVFGNCVALVGFTGKARELCFGTNIRLDHTQQVEMDLQIDAEALHYPFAYDPEEVVDLERTIKRHFADPDDEVGRWTRQFVRIGQPTETGRLLMTLCYAIHESFIYARRLEHGTQTPLETLRLRRGTCRDFALLMMEAARSLGLAARFVTGYIYVPDRDGSTKLGGGSTHAWCQVYLPGAGWVEFDPTNGIVGNRDLIRVGVARDPKQAVPLSGSYDGDASDFDTMSVQVNVTTDKLSDTAA	not soluble
GSLHRVPLRRHPSLKKKLRARSQLSEFWKSHNLDM	soluble
MTLSKQLKTYITERFKLNYQDTWSCETVDAVAEDVLPEKYIKNSPLEHKILNTFTYYNDELHEISIYPFLCYLDKELIAIGYLDNFDLDFIFLNDTHQIIIDERYLLQKGGELEHHHHHH	not soluble
MAHHHHHHMACDFELPLFAAPCSEVLSTQMSVVDGKMAEKSDKAKRTARASACMIRKGFFSHFPQAILTSPESGIKTAPHPWSNASLMMAADAFSVGLMLRLRLFSIICRNPSPKPTAAGGRFAGYVFCTIPRLSADNCRRTALLKKSWSYKRMPKMAAKYKKRDAVTSISAMVKELSAGMARTDRRNFSLRDTVW	not soluble
MSLGAYLSEPLTTKDSSDESNEFLASGSSSMQGWRISQEDAHNCILNFDDQCSFFAVYDGHGGAEVAQYCSLHLPTFLKTVEAYGRKEFEKALKEAFLGFDATLLQEKVIEELKVLSGDSAGSDAEPGKDSGCTAVVALLHGKDLYVANAGDSRCVVCRNGKALEMSFDHKPEDTVEYQRIEKAGGRVTLDGRVNGGLNLSRAIGDHGYKMNKSLPAEEQMISALPDIEKITVGPEDEFMVLACDGIWNFMTSEQVVQFVQERINKPGMKLSKICEELFDHCLAPHTRGDGTGCDNMTAIIVQFKEGHHHHHH	soluble
GYQPEKHAVVKSDRGDGRLLSTYAIVHEMLKDTHPQYAYRSGMSAQEFTQWQDGVRAAMVEIMKFPEIKRQPSPVCVKTEKKEGYILEKWEFYPFPKSVSTFLVLKPEHLKGAVPGVLCIPGSGRTKEGLVGEPGICDKLTEDYNNPKVSMALNMVKEGYVAVAVDNAAAGEASDLECYDKGWNYDYDVVSRFLLELGWSWLGYTSYLDMQVLNWMKAQSYIRKDRIVISGFSLGTEPMMVLGVLDKDIYAFVYNDFLCQTQERAVVMTKPDKENRRPFPNSIRHLIPGYWRYFNFPDVVASLAPRPIIFTEGGLDRDFRLVQSAYAASGKPENAEFHHYPKFADKAVRKDVEHLDEGLDSKTYFEAVNVDPPSHYFKNELVIPWLRKVLK	soluble
HHHHHHMAGMAMDLGGYLTRIGLDGRPRPDLGTLHAIVAAHNRSIPFENLDPLLGIPVADLSAEALFAKLVDRRRGGYCYEHNGLLGYVLEELGFEVERLSGRVVWMRADDAPLPAQTHNVLSVAVPGADGRYLVDVGFGGQTLTSPIRLEAGPVQQTRHEPYRLTRHGDDHTLAAQVRGEWQPLYTFTTEPRPRIDLEVGSWYVSTHPGSHFVTGLTVAVVTDDARYNLRGRNLAVHRSGATEHIRFDSAAQVLDAIVNRFGIDLGDLAGRDVQARVAEVLDT	soluble
MGSDKIHHHHHHMIYLKIIRGFFSALREHPQSQSIPVIFVSALDETANQIQGLQGGAIDYLVKPVQPDILKLRLANLLATVNLQRDLQANYDNMLELSRLRDCVDELIHHDLKSPLSAISAMLQRLSQDKSCPKGWRSKLTAIHDLTMQSINTVNLSSEIFKIETGRFILKPERFSAHGLVKQVLHSMHVTFHHKQLIAFQFPDEDPNGQFDVLADETLTYSLLLNLIKNAFEASTMRTKVAIHLSIEQGNVVIQIENSGVVPEHIRPRFWDKYVTSQKEEGAGLGTYSACLLAKAQGGTTQLQVDDLQNKTIVTVCLPAAT	not soluble
MRVDRRTFLKATGAALGALALSGLPARAQGLEGEDLEHLEQALKEVFGKGFKDLTPSDAVKLNMPAIAESGANVPAEVEVALPKEQVKAIHLFADKNPTPHILAFMPMKAEPYYATRVRLAETTAIRAVVETQDGKLLLASASTRVTVGGCG	soluble
ELSGDDQGDEEEDDHAYEGVPNGGWHTSSLSLSLPSTIAAPHPMDGPPGGSTPVTPVIKAGWLDKNPPQGSYIYQKRWVRLDTDHLRYFDSNKDAYSKRFISVACISHVAAIGDQKFEVITNNRTFAFRAESDVERKEWMQALQQAMAEQRARARLSSAYLLGVPGSEQPDRAGSLELRGFKNKLYVAVVGDKVQLYKNLEEYHLGIGITFIDMSVGNVKEVDRRSFDLTTPYRIFSFSADSELEKEQWLEAMQGAIAEALSTSEVAERIWAAAPNRFCADCGAPQPDWASINLCVVICKRCAGEHRGLGAGVSKVRSLKMDRKVWTETLIELFLQLGNGAGNRFWAANVPPSEALQPSSSPSTRRCHLEAKYREGKYRRYHPLFGNQEELDKALCAAVTTTDLAETQALLGCGAGINCFSGDPEAPTPLALAEQAGQTLQMEFLRNNRTTEVPRLDSMKPLEKHYSVVLPTVSHSGFLYKTASAGKLLQDRRAREEFSRRWCVLGDGVLSYFENERAVTPNGEIRASEIVCLAVPPPDTHGFEHTFEVYTEGERLYLFGLESAEQAHEWVKCIAKAFVPPLAEDLLARDFERLGRLPYKAGLSLQRAQEGWFSLSGSELRAVFPEGPCEEPLQLRKLQELSIQGDSENQVLVLVERRRTLYIQGERRLDFMGWLGAIQKAAASMGDTLSEQQLGDSDIPVIVYRCVDYITQCGLTSEGIYRKCGQTSKTQRLLESLRQDARSVHLKEGEQHVDDVSSALKRFLRDLPDGLFTRAQRLTWLEASEIEDEEEKVSRYRELLVRLPPVNRATVKALISHLYCVQCFSDTNQMNVHNLAIVFGPTLFQTDGQDYKAGRVVEDLINHYVVVFSVDEEELRKQREEITAIVKMRVAGTASGTQHAGDFICTVYLEEKKAETEQHIKVPASMTAEELTLEILDRRNVGIREKDYWTCFEVNEREEAERPLHFAEKVLPILHGLGTDSHLVVKKHQAMEAMLLYLASRVGDTKHGMMKFREDRSLLGLGLPSGGFHDRYFILNSSCLRLYKEVRSQRPWSGAPETSHRPEKEWPIKSLKVYLGVKKKLRPPTCWGFTVVHETEKHEKQQWYLCCDTQMELREWFATFLFVQHDGLVWPSEPSRVSRAVPEVRLGSVSLIPLRGSENEMRRSVAAFTADPLSLLRNV	soluble
VTDDLEPTAPAAAAPEPEVKGIDLARRALEEARAAAKASGKSVGQGRRSGTGVRALRARRRRGWSGPGPDDRDPQPFGALTNAIAKQRGWSPKVSEGTVLGRWVQVVGEDIAAHAEPTGLRDGILSVSAESTAWATQLRMMQSQILAKIAAAVGDGVVKSLRITGPTAPSWRKGERHIRGRGPRDTYG	not soluble
MMNIFILEDDFIQQTRIESIVVGILKETRIPCNQLEVFSTPQKLFESIQERGDHQLYFLDIEIGEYTRCGLELAAAIRQKDPNAVIVFVTTHSEFAPISFKYKVSALDFIDKAGGQKQFKEQIEECIRYTYDMMSSRESKDMFLFETPQTRLKLPYKDILYFATATTPHKVCLWTQTERLEFYGNLSEIQAVAPKLFLCHRSYLVNLDKVVRIDKSKQLLYFENGDSCMVSRLKMKCLFERWEALR	not soluble
MKYRIVRIELKSDDEVTLYLKSASRKPGVMAKADFSDPVKVIEFGLQMGMDLARRIEELMQFDAFLTVPYDYYSMNELKVGDVVEVEVRLAER	not soluble
MGSDKIHHHHHHMSVFATFASQTRIQAILVMQTALSVSSRLSLEPTGTDMPVIKGPDGLPFIPGSSIKGVVRFQVERILRTWDRRPDFWACDPFDAPCIPAKKKEQLLNDAETDQSFAETVWKESCTACRLFGSPWFAGRVAFRDAYLLNPEDLPTLTQIRDGVGIDRDLGTARSGIKYDFETVIPGARFGLEILAENLEEWEIGFLLTVLRLWEEGGIAIGGKTTRGPGWGKLQEIKIQRVGISNLMDYLLERKSSEVAATQFLQTFREWLKERGAGDA	not soluble
MSLRDLPGQTGVQFTTGGVNHFLSWKSGGERHYFTSLAFTHTNRNRTCWLYGLDYQIKEYTYENKAIPKAQFTGELGYFIPVLSDKGRNVCFRIGLSVLGGFETVNWGTSLLPDGAAVTNGDCFIYGGGLTAAFDVWLTDRIILLMQVKERAFFGTDAGNFHTQIGLGVRLIINEGHHHHHH	not soluble
MRDFNNAQITRLKVRQNAVFEKLDLEFKDGLSAISGASGVGKSVLIASLLGAFGLKESNASNIEVELIAPFLDTEEYGIFREDEHEPLVISVIKKEKTRYFLNQTSLSKNTLKALLKGLIKRLSNDRFSQNELNDILMLSLLDGYIQNENKAFSPLLGALEEKFTRLEKLEKERRLLEDKKRFQKDLEERLNFEKMKLERLDLKEDEYERLLEQKKLLSSKEKLNDKIALAL	not soluble
MTKIKIVVIVGPTAVGKTALGISLAKAFNGEIISGDSQQVYRQLDIGTAKATQEEQEAAVHHLIDIREVTESYSAYDFVQDAQKSISDIVSRGKLPIIVGGTGLYLQSLLEGYHLGGQVDQEAVKAYRNELEQLDDHDLYERLQVNNITIEQVNRRRAIRALELAQFADELENAETAYEPLIIGLNDDRQVIYDRINQRVNRMIENGLLEEAKWLYEHYPTVQASRGIGYKELFPYFVGEMTLAEASDQLKQNTRRFAKRQLTWFRNRMAVSFTAITAPDYPQVVHDRVRDFLGQKEKSLEHHHHHH	not soluble
MTKFILLALVGLAAAIDFDSSSSESCEDGNGHGHGHGNGNGNGNGNGNGNGGRANGGCETGWRHFRRPSGSWCVRVFGGRLNQGAAQSQCQSFGATLSGLRNLEEARTISNLALSVIGRSSGGIWLGARRTTACAKQHKTTSCSTTSSFRWTDSSASGTAGFVWNNVQPDNSDLNSQCAVLHAGSSAATVSNAVWQPAMMDDVTCSFDPAGRDPRSIYGYVCGKKPSRR	not soluble
